The assay deals with Glut1 mRNA expression in differentiated 3T3-L1 adipocytes. Kind of assay: Glut1 Taqman assay. The class given is cell-based. The protocol: Differentiated 3T3-L1 adipocytes were used to measure the Glut1 mRNA expression by qPCR method. Overnight serum starved day 10-14 differentiated 3T3-L1 adipocytes were treated with compounds for 6 hrs. Total RNA was extracted from these cells, and Glut1 and GAPDH mRNA expression was measured using a Quantitect Probe RT-PCR kit and running a quantitative real time PCR reaction in a Taqman machine (Applied Biosystems®). The bioactivity of the compounds was determined by a fold change in Glut1 mRNA levels normalized by the GAPDH mRNA levels from each sample. EC50 values as measurements of the potency of the compounds were obtained from the dose response curves in the assay.
3T3-L1 adipocytes were seeded at day 8 in 24-well tissue culture plates (Falcon®, Cat#353047), and incubated in DMEM complete medium (10% FBS, 2 mM L-glutamine, 1% P/S) at 37° C., 5% CO2. […] The medium was aspirated, and then RNA extracted from the cells using the RNeasy mini Kit according to the manufacturer's instructions. RNA was measured at A260 nm using the Spectramax® Plus spectrophotometer.

Read-outs that look alike come from different tables or passages of the source.

B1: FGF21ΔH: FGF21 with H1 absent (ΔH1), L146, SEQ ID NO:2; control protein (protein, listed as Homo sapiens)
chain: PIPDSSPLLQFGGQVRQRYLYTDDAQQTEAHLEIREDGTVGGAADQSPESLLQLKALKPGVIQILGVKTSRFLCQRPDGALYGSLHFDPEACSFRELLLEDGYNVYQSEAHGLPLHLPGNKSPHRDPAPRGPARFLPLPGLPPAPLEPPGILAPQPPDVGSSDPLSMVGPSQGRSPSYAS
Take B1: the EC50 (as a rule, the concentration that produces a half-maximal response) is, setting by setting: (3T3-L1 adipocytes, 6 hrs, Taqman quantitative real-time PCR, read-out: Glut1 RNA expression EC50) 3.39 nM; (unconjugated protein, n in brackets, read-out: Glut1 Taqman unconjugated Protein EC50) 2.3 nM. The “Glut1 induction in 3T3-L1 adipocytes” value (6 hrs) is on record as “dose-dependent Glut1 induction”.

The values above are taken from patent US8722622B2, “FGF21 conjugates and anti-diabetic uses thereof” (COVX Technologies Ireland, Limited, priority 2010, dated 2014).
